Binding result and EC50 data for four molecules are collected here from patent US20200010567A1 (NEURIMMUNE, published 2020).

Test [1] concerns the target T1, PA3: H-(PA)3HHHHHH-NH2.
T1 peptide: H-PAPAPAHHHHHH-NH2
Nature of the test: indirect ELISA, His-tagged peptide coated at 50 ug/ml, antibody titrated [also D00028 FIG. 7P]. On the procedure:
(§1) 96-well microplates (Corning Incorporated, Corning, USA) were coated with dipeptide repeat protein peptides at a concentration of 50 μg/ml in coating buffer (15 mM Na₂CO₃, 35 mM NaHCO₃, pH 9.42). Non-specific binding sites were blocked for 1 h at room temperature with PBS/0.1% Tween®-20 containing 2% BSA (Sigma-Aldrich, Buchs, Switzerland). Primary antibodies were diluted to the indicated concentrations and incubated 1 h at room temperature, followed by incubation with a donkey anti-human IgG Fcγ-specific antibody conjugated with HRP (Jackson ImmunoResearch Laboratories, Inc., West Grove, USA). Binding was determined by measurement of HRP activity in a standard colorimetric assay. EC₅₀ values were estimated by non-linear regression using GraphPad Prism software (San Diego, USA).
(§2) High affinity binding was detected for poly-GA DPRs harboring 10 or 20 (GA)-repeats, reflected in an EC₅₀ in the subnanomolar or low nanomolar range (FIGS. 7A, 7C-7I).

For test [2], the target named is T2, PA4: H-(PA)4HHHHHH-NH2.
T2 peptide: H-PAPAPAPAHHHHHH-NH2
Described as above. On the procedure:
as §1, §2

Test [3] has as its target T3, PA2: H-(PA)2HHHHHH-NH2.
T3 peptide: H-PAPAHHHHHH-NH2
The description is as above. On the procedure: as §1, §2

For test [4], the target named is T4, (PR)15: H-C(PR)15-OH.
T4 construct: synthetic, not coupled to BSA; also called poly-PR DPR protein peptide
T4 peptide: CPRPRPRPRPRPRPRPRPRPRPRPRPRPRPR
As to the kind of experiment: indirect ELISA, uncoupled peptide coated, antibody titrated [also D00013 FIG. 3F]. On the procedure: as §1, with “In brief, dipeptide repeat proteins were synthesized and purified by Schafer-N(Copenhagen, Denmark): (GA)₁₅: H-CHHHHHH(GA)₁₅-OH; (GP)₁₅: H-C(GP)₁₅-OH; (GR)₁₅: H-C(GR)₁₅-OH; (PA)₁₅: H-C(PA)₁₅-OH; (PR)₁₅: H—C(PR)₁₅-OH. DPR protein peptides were then conjugated via a bifunctional linker (SMCC) to bovine serum albumin (BSA). 96-well microplates” for “96-well microplates”, “coated with BSA-coupled or -uncoupled dipeptide repeat” for “coated with dipeptide repeat”, “concentration of either 5 μg/ml or 20 μg/ml in” for “concentration of 50 μg/ml in”

Test [5] deals with T5, GA4: H-(GA)4HHHHHH-NH2.
T5 peptide: H-GAGAGAGAHHHHHH-NH2
As to the kind of experiment: indirect ELISA, His-tagged peptide coated at 50 ug/ml, antibody titrated [also D00025 FIG. 7I]. On the procedure:
as §1, §2

Test [6] concerns the target T6, GA5: H-(GA)5HHHHHH-NH2.
T6 peptide: H-GAGAGAGAGAHHHHHH-NH2
The test is described as above. On the procedure:
as §1, §2

For test [7], the target named is T7, GA3: H-(GA)3HHHHHH-NH2.
T7 peptide: H-GAGAGAHHHHHH-NH2
Described as above. On the procedure:
as §1, §2

The target in test [8] is T8, GA2: H-(GA)2HHHHHH-NH2.
T8 peptide: H-GAGAHHHHHH-NH2
The test is described as above. On the procedure: as §1, §2

The target in test [9] is T9, (GA)15: H-CHHHHHH(GA)15-OH.
T9 construct: synthetic, not coupled to BSA; also called poly-GA DPR protein peptide
T9 peptide: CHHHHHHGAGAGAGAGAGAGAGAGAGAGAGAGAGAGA
Nature of the test: indirect ELISA, uncoupled peptide coated, antibody titrated [also D00013 FIG. 3E]. On the procedure:
as §1, with “In brief, dipeptide repeat proteins were synthesized and purified by Schafer-N(Copenhagen, Denmark): (GA)₁₅: H-CHHHHHH(GA)₁₅-OH; (GP)₁₅: H-C(GP)₁₅-OH; (GR)₁₅: H-C(GR)₁₅-OH; (PA)₁₅: H-C(PA)₁₅-OH; (PR)₁₅: H—C(PR)₁₅-OH. DPR protein peptides were then conjugated via a bifunctional linker (SMCC) to bovine serum albumin (BSA). 96-well microplates” for “96-well microplates”, “coated with BSA-coupled or -uncoupled dipeptide repeat” for “coated with dipeptide repeat”, “concentration of either 5 μg/ml or 20 μg/ml in” for “concentration of 50 μg/ml in”

The target of test [10] is T10, GP6: H-(GP)6HHHHHH-NH2.
T10 peptide: H-GPGPGPGPGPGPHHHHHH-NH2
Nature of the test: indirect ELISA, His-tagged peptide coated at 50 ug/ml, antibody titrated. On the procedure:
as §1, §2

B1: NI-308.4M1 (antibody, V domains shown)
VH: EVQLVETGGGVVQPGGSLRLSCEASGFTIGTYAMHWVRQFPGKGLDWVAVISFDGTTEYYTDAVKGRFTISRDNAKNTLYLQMNYLRGDDTAIYFCARDFTSSGETGSWTQVPDLWGQGTLVTVSS
VL: CEIVMTQSPATLSLSPGERATLSCRASQSVTKYLAWYQQKPGQAPRLLIYDVSYRAAGTPARFSGSGSGTDFTLTISSLEPEDFAVYYCHQRSSWPPVTFGGGTKVEIK
notes: Recombinant complete human IgG1, kappa
Regarding B1, the binding result in test [1], in [2] and in test [3] was “no binding (tested: about 4x10^5 pM (last point))” in each case.

B2: NI-308.24E11 (antibody, V domains shown)
VH: QVQLQESGPGLVKPSETLSLTCTVSTTSLRSYFWSWIRQPPGKGLEWIGYVYYSGSTIYNPSLKNRVTISIDTSKNQFSLNLRSVTAADTAMYFCARGVPAETDARDFPPYYFDHWGQGTLVTVSS
VL: CDIQLTQSPSSLSASVGNRITFTCQASQDIRYYLNWYQQKPGKAPKLLIYDVSNLDTGVPPRFSGSGSGTNFTFTISSLQPEDIAVYYCQQYEGLPVTFGGGTKVEIK
notes: as for B1
On to B2, for which the concentration giving a half-maximal response (EC50) in [4] is 0.0113 µM.

B3: NI-308.45C2 (antibody, V domains shown)
VH: QLQLQESGPGLVKPSQILSLTCAISGDSVFSNSAAWNWIRQSPSRGLEWLGRTYYRSKWDNDYAPSVKSRISINPDTSKNQFSLQLNSVTPEDTAVYYCAREVAYCGGDCYSVSFDYWGQGTLVTVSS
VL: not shown
notes: as for B1
Consider B3, for which the binding result in test [5], in test [6], in test [7] and in test [8] was “no binding (tested: about 4x10^5 pM (last point))” in each case. Moreover, the EC50 in test [9] is 0.0011 µM.

B4: NI-308.46E9 (antibody, V domains shown)
VH: QVQLQESGPGLVKPSETLSLTCTVSGASISGSTYYWGWIRQPPGKGLEYIGRIYYSGSTYYNPSLKSRATISVDTSKNQLSLTLSSVTAADTAVYYCVRPFYAGSGNSPFDYWGQGTLVTVSS
VL: CEIVLTQSPATVSVSPGERATLSCRASQSVSTNLAWYQQKPGQPPRLLIYGASTRATGIPARFSGSGSGAEFTLTISSLQSEDFVVYYCQQYNNWPPAFGGGTKVEIK
notes: as for B1
Consider B4, for which the EC50 in [10] was over 0.2 µM.
